In patent EP4681729A1 (Shanghai Mabgen Biotech Ltd., dated 2026):
Where two headings read alike, the source gives them in different places.

What was measured:
[1] = molecular target: T1, human PVRIG expressed on cells (human, UniProt Q6DKI7 1-326); test: cell-based or functional assay
T1 sequence (looked up): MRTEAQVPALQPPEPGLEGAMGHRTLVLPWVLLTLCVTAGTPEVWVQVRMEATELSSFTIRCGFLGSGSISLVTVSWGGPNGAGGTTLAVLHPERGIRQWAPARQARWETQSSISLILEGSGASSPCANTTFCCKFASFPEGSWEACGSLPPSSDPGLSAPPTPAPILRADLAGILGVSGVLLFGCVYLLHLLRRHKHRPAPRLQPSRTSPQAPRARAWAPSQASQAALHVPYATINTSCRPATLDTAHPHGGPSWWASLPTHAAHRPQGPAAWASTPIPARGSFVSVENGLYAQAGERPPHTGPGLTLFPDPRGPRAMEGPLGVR

[2] = molecular target: T1, human PVRIG expressed on cells; test: cell-based or functional assay; remark: listed apart in the source

PVRIG reporter gene cell activity EC50 [1]: 1.38 nM
PVRIG reporter gene cell activity EC50 [2]: 0.74 nM
B1: Tab5 (antibody, V domains shown)
VH: EVQLVESGGGVVKPGGSLRLSCAASGFTFGTSSMNWVRQAPGKGLEWVAVISFDGTEIHYADSVKGRFTISRDNSKSTVFLQMNSLRPDDTALYYCAKGSGNIYFYSGMDVWGQGTTVTVSS
VL: DIQMTQSPSTLSASVGDRVTITCRAGQSISGWLAWFQQKPGKAPNLLIYETSTLESGVPSRFSGSGSGTEYTLTISSLQPDDFATYYCQQYYSYPLTFGQGTKVEIKR
